The labels stand for the following.
T1: TREM2 R47H, biotinylated (human, UniProt Q9NZC2, R47H, biotin on the C-terminal BirA biotinylation sequence (enzymatic, BirA))
T1 sequence: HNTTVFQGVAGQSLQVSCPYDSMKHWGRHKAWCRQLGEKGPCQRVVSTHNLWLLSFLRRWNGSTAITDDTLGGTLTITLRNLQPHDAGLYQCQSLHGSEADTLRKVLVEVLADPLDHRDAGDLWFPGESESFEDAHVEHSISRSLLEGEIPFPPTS

T2: TREM2 R62H, biotinylated (human, UniProt Q9NZC2, R62H, biotin on the C-terminal BirA biotinylation sequence (enzymatic, BirA))
T2 sequence: T1 sequence with H29R, R44H

B1: TREM2 WT, biotinylated (receptor)
chain: T1 sequence with H29R
modifications: biotin on the C-terminal BirA biotinylation sequence (enzymatic, BirA)
B2: Human IL-34 (19-241) (ligand)
chain: LGNEPLEMWPLTQNEECTVTGFLRDKLQYRSRLQYMKHYFPINYKISVPYEGVFRIANVTRLQRAQVSERELRYLWVLVSLSATESVQDVLLEGHPSWKYLQEVETLLLNVQQGLTDVEVSPKVESVLSLLNAPGPNLKLVRPKALLDNCFRVMELLYCSCCKQSSVLNWQDCEVPSPQSCSPEPSLQYAATQLYPPPPWSPSSPPHSTGSVRPVRAQGEGLL

Holding throughout (experiment): BLI
A general note: BLI is a label-free optical method that tracks binding on a fibre tip over time.

Test [1] has as its target oligomeric amyloid beta 42 (UniProt P05067).
Test [2] deals with B2.
The target in test [3] is T1, TREM2 R47H, biotinylated.
For test [4], the target named is T2, TREM2 R62H, biotinylated.

This note sets out measurements from paper doi:10.1101/2024.05.23.595592 (bioRxiv, 2024).

Positions count from the first letter of the chain named.

One may read the Kd as the concentration at which binding is half-saturated. A higher Kd goes with a looser complex. On to B1, for which the Kd was determined as 42.5 nM in test [1] and 16.5 nM in test [2].
Consider B2, for which the “fold decrease in KD (affinity) against TREM2 WT” value in test [3] and in test [4] was approximately 4 fold throughout.
